How the values were obtained:
wildtype Y2R = molecular target: T1, wildtype Y2R (Homo sapiens, UniProt P49146); assay: GloSensor cAMP inhibition assay in HEK293 cells; assay type: cell-based; conditions: Figure 1C
T1 construct: Flag; expressed in transfected cells; host or cells: HEK293
T1 sequence (P49146 1-381): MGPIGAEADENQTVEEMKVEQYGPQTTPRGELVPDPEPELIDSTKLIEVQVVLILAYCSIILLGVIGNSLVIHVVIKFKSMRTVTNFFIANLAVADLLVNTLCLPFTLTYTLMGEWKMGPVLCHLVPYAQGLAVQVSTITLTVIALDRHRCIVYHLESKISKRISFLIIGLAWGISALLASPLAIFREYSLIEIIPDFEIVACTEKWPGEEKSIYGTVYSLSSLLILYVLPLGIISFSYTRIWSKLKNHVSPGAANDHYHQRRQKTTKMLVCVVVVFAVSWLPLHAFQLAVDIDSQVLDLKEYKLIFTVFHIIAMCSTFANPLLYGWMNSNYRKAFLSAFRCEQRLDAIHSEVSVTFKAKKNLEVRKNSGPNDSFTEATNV
Protocol: EM density map11, the coordinates were subsequently manual adjustment and rebuilding in COOT 12. Real space refinement was performed in Phenix program 13.
The model statistics were finally validated by using MolProbity 14 in Phenix. The refinement statistics are presented in supplemental information table S1. UCSF Chimera11, Chimera X 15 and PyMOL (https://pymol.org/2/) were used to generate the […]
Cyclic adenosine 3′,5′-monophosphate (cAMP) assay.
To measure the ligand-induced Gi signaling activation potency of wild -type NPYR or mutants, the GloSensor cAMP assay (Promega) was conducted following a previous study. Briefly, HEK293 cells were co -transfected with the GloSensor plasmid and various NPYR constructs or pcDNA3.1 (as a negative control) plasmids using Polyethylenimine Linear (PEI, YEASEN) in 6 -well plates. Following a 4-hour incubation period, the cells were transferred to fresh medium. After 24 hours, they were harvested and suspended in assay buffer ( HBSS with 10 mM HEPES, pH 7.4), supplemented with a 3% v/v dilution of D -Luciferin-Potassium Salt (YEASEN).
Following a subsequent 1 -hour incubation, ligands, diluted in assay buffer with forskolin, were introduced to the cells. Subsequently, the cells wer e incubated for 30 minutes in a light-free environment at room temperature […] signals were measured using a Synergy H1 microplate reader (BioTek). […]

[1] = molecular target: T2, wild-type human Y1R (NPY1R-WT, hY1R) (Homo sapiens, UniProt P25929); assay: GloSensor cAMP inhibition assay in HEK293 cells; assay type: cell-based; conditions: wildtype Y1R, Figure 1B
T2 construct: Flag; expressed in transfected cells; host or cells: HEK293
T2 sequence (P25929 1-384): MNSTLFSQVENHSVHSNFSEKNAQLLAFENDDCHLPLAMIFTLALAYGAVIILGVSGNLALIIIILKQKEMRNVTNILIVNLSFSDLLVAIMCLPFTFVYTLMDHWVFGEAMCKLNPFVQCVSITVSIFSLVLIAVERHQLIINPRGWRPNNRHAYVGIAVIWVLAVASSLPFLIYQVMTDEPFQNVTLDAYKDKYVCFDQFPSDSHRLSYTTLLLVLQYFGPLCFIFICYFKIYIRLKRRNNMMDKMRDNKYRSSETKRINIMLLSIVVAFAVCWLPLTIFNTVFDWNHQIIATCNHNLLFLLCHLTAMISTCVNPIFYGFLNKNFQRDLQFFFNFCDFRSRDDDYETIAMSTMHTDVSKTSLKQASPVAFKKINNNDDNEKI
Protocol: Following a subsequent 1 -hour incubation, ligands, diluted in assay buffer with forskolin, were introduced to the cells. Subsequently, the cells wer e incubated for 30 minutes in a light-free environment at room temperature Fluorescence signals were measured using a Synergy H1 microplate reader (BioTek). GraphPad Prism 8 (GraphPad Software) was used to processing data using the nonlinear regression dos e-response function. Results were represented as the mean ± s.e.m. from three independent experiments . All experiments were repeated at least three times.

Row | Substance | Y2R activation compared with NPY (in words) (wildtype Y2R) | reduced Y1R activation compared to NPY [1]
1 | NPY^3−36: N-terminal truncated NPY variant, processed by dipeptidyl peptidase IV | slightly reduced Y2R activation | > 50 folds
2 | NPY^13−36: N-terminally truncated NPY | – | > 50 folds

— paper PMC11179954 (MedComm, 2024)
